Patent US20250215052A1, “INHIBITORS OF PICK1 AND USES THEREOF” (University of Copenhagen, priority 2018, published 2025)
Read-outs that look alike come from different tables or passages of the source.

How the values were obtained:
[1] = molecular target: T1, fluorescently labelled recombinant rat PICK1 (DY549-SNAP-PICK1) (rat), Q9EP80; assay: SCMS, dissociation of PICK1 pre-bound to TacDAT C24 sheets by peptide
[2] = molecular target: T2, Protein Interacting with C Kinase-1 (PICK1), purified recombinant, Q9EP80; assay: fluorescence polarization competition, tracer 5-FAM-TAT-C5, purified PICK1
[3] = molecular target: T1, fluorescently labelled recombinant rat …
[4] = molecular target: T2, Protein Interacting with C Kinase-1 …; assay: fluorescence polarization competition, tracer 5FAM-TAT-(C5), purified PICK1

T2 sequence (Q9EP80 whole entry): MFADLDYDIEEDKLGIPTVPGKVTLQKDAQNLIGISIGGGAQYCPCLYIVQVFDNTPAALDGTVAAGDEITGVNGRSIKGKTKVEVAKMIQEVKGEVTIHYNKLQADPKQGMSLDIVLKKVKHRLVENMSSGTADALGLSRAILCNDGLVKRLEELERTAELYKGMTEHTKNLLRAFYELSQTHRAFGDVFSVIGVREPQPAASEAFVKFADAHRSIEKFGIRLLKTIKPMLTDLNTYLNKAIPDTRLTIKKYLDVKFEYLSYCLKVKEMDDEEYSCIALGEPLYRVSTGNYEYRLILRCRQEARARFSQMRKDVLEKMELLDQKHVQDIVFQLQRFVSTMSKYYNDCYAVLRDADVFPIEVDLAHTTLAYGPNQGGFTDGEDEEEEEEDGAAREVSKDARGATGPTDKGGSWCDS
T1 sequence (Q9EP80 whole entry): as above

Binder	IC50 [1]	Fold affinity change (vs TAT-P4-(C5)2) [2]	Ki [2]	IC50 [3]	Ki [4]	fold shift in affinity [4]
TAT11-PEG4-(DATC5)2 (modifications not checked) peptide 1: HWLKV peptide 2: YGRKKRRQRRR	1170 nM	1 fold	4 nM	7 nM	6.6 nM	301 fold
TP10-P4-(C5)2 (modifications not checked) peptide 1: HWLKV peptide 2: […]	–	0.5 fold	7.8 nM	–	–	–
